± gives the uncertainty stated by the source.
Experiment: self-splicing fitness, log relative to wild type (ln ratio); higher = more splicing; Tetrahymena group I intron in knt gene, E. coli kanamycin selection, DiMSum; sequences stand for … in CUCUCU…GGAGGGAAAAGUUAUCAGGCAUGCACCUGGUAGCUAGUCUUUAAACCAAUAGAUUGCAUCGGUUUAAAAGGCAAGACCGUCAAAUUGCGGGAAAGGGGUCAACAGCCGUUCAGUACCAAGUCUCAGGGGAAACUUUGAGAUGGCCUUGCAAAGGGUAUGGUAAUAAGCUGACGGACAUGGUCCUAACCACGCAGCCAAGUCCUAAGUCAACAGAUCUUCUGUUGAUAUGGAUGCAGUUCACAGACUAAAUGUCGGUCGGGGAAGAUGUAUUCUUCUCAUAAGAUAUAGUCGGACCUCUCCUUAAUGGGAGCUAGCGGAUGAAGUGAUGCAACACUGGAGCCGCUGGGAACUAAUUUGUAUGCGAAAGUAUAUUGAUUAGUUUUGGAGUACUCGUGGUCG
Method in brief: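 Fitness was computed with DiMSum as the error-weighted combination of replicate fold changes, kanamycin versus none, each normalised to wild type. The library randomised all eight intron nucleotides of the P1ex region, with the intron placed in the knt kanamycin-resistance gene on pET-22b(+) in E. coli BL21(DE3). Six replicate transformations were grown overnight at 37°C or 30°C on LB agar with or without 25 μg/mL kanamycin, plus 100 μg/mL carbenicillin, 50 μM IPTG and 0.2% rhamnose. Pooled colonies were amplicon-sequenced on an Illumina HiSeq 2500.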

Sequence	self-splicing fitness (ln) (30 °C)	self-splicing fitness (ln) (37 °C)
CCUUAGCAAUAUUACGGUUC	-2.91 ± 0.18	-2.72 ± 0.39
CCUUAGCAAUAUUACGUCCG	-1.73 ± 0.11	-0.989 ± 0.17
CCUUAGCAAUAUUACGUCGA	–	-2.67 ± 0.34
CCUUAGCAAUAUUACGUGCC	-4.23 ± 0.25	-2.41 ± 0.28
CCUUAGCAAUAUUACGUUGA	-3.24 ± 0.21	-3.02 ± 0.24
CCUUAGCAAUAUUACGUUUA	-3.23 ± 0.26	-2.21 ± 0.2
CGAAAGCAAUAUUACGAAGA	-2.12 ± 0.16	-0.849 ± 0.13
CGAAAGCAAUAUUACGAAUA	-2.47 ± 0.29	-2.14 ± 0.2
CGAAAGCAAUAUUACGAAUC	-2.03 ± 0.45	-1.87 ± 0.26
CGAAAGCAAUAUUACGACCU	-0.917 ± 0.079	-0.386 ± 0.11
CGAAAGCAAUAUUACGAGGC	-3.72 ± 0.2	-1.88 ± 0.21
CGAAAGCAAUAUUACGAUAC	-1.99 ± 0.18	-2.11 ± 0.38
CGAAAGCAAUAUUACGCAUA	-3.13 ± 0.25	-2.72 ± 0.2
CGAAAGCAAUAUUACGCCAG	-0.884 ± 0.14	-0.307 ± 0.21
CGAAAGCAAUAUUACGCGCG	-2.64 ± 0.16	-1.34 ± 0.17
CGAAAGCAAUAUUACGGGCU	-2.74 ± 0.14	-1.55 ± 0.17
CGAAAGCAAUAUUACGGGUA	-2.73 ± 0.16	-2.57 ± 0.14
CGAAAGCAAUAUUACGGUAG	-0.561 ± 0.065	-0.437 ± 0.085
CGAAAGCAAUAUUACGGUUG	-0.623 ± 0.057	-0.494 ± 0.073
CGAAAGCAAUAUUACGUACC	-1.18 ± 0.13	-0.845 ± 0.2
CGAAAGCAAUAUUACGUAUG	-1.15 ± 0.057	-0.533 ± 0.083
CGAAAGCAAUAUUACGUGUA	-3 ± 0.13	-2.35 ± 0.13
CGAAAGCAAUAUUACGUUAC	-3.15 ± 0.18	-3.01 ± 0.26
CGACAGCAAUAUUACGAAAU	-3.15 ± 0.12	-3.06 ± 0.19

Sequence	self-splicing fitness (ln) (30 °C)	self-splicing fitness (ln) (37 °C)
CGACAGCAAUAUUACGAAGG	-1.94 ± 0.092	-0.848 ± 0.13
CGACAGCAAUAUUACGAAUG	-1.1 ± 0.079	-0.112 ± 0.1
CGACAGCAAUAUUACGAAUU	-3.51 ± 0.19	-2.04 ± 0.18
CGACAGCAAUAUUACGAGCA	-2.11 ± 0.18	-1.26 ± 0.16
CGACAGCAAUAUUACGAUAC	-3.71 ± 0.25	-2.96 ± 0.27
CGACAGCAAUAUUACGAUCG	-3.43 ± 0.2	-2.11 ± 0.2
CGACAGCAAUAUUACGAUGG	-0.855 ± 0.072	-0.172 ± 0.094
CGACAGCAAUAUUACGCCAA	-2.18 ± 0.28	-3.28 ± 0.37
CGACAGCAAUAUUACGCCGA	-2.36 ± 0.11	-0.991 ± 0.094
CGACAGCAAUAUUACGCCGG	-0.394 ± 0.059	-0.272 ± 0.067
CGACAGCAAUAUUACGCGCA	-1.17 ± 0.13	-0.0102 ± 0.12
CGACAGCAAUAUUACGCGCC	-2.02 ± 0.13	-0.187 ± 0.17
CGACAGCAAUAUUACGCGCG	-2.61 ± 0.19	-1.8 ± 0.18
CGACAGCAAUAUUACGCGUU	-4.77 ± 0.26	-3.29 ± 0.18
CGACAGCAAUAUUACGCUUU	-5.56 ± 0.41	-2.05 ± 0.15
CGACAGCAAUAUUACGGAAA	-1.98 ± 0.21	-2.2 ± 0.18
CGACAGCAAUAUUACGGAGG	-1.91 ± 0.086	-1.21 ± 0.12
CGACAGCAAUAUUACGGCAG	-0.376 ± 0.083	0.289 ± 0.094
CGACAGCAAUAUUACGGCCU	-1.57 ± 0.13	-0.3 ± 0.14
CGACAGCAAUAUUACGGCUG	-3.32 ± 0.19	-0.951 ± 0.16
CGACAGCAAUAUUACGUAGU	-3.12 ± 0.099	-2.11 ± 0.12
CGACAGCAAUAUUACGUCAG	-2.38 ± 0.094	-1.94 ± 0.12
CGACAGCAAUAUUACGUCGA	-3.04 ± 0.18	-2.51 ± 0.15

Source: the supplement of paper PMC7877785
